Assay results reported in the domain aggregation screens of Martell et al. (2025).

assay: soluble fraction after stress (log2 fold change); higher = more stays soluble; pooled small domains, quantitative proteomics; settings: stress: pH 4
Procedure, shortened: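 Values are on a log2 scale, where higher means more of the domain stayed soluble after pH 4 stress. They are fold changes in the soluble amount of each domain from pooled custom libraries, measured by high-throughput quantitative proteomics. The fold change is taken to reflect aggregation propensity.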

Row | Sequence | soluble fraction (log2)
1 | HMAAAQILRAAVLRVPAEETMRFVTETPELRRYLGASLGPTAAIVRPGQEQNLAAALQSHGILVEFDE | 0.106
2 | HMAADLIGLEARVTLPLTEDQRGFIETSVRGSLVRRAALSASGRLDRGQRVVILRSEGTTLIVDAL | -0.372
3 | HMAADRRKAERPLIDGQAVMDRFEVGPGPMVGKALKFLLALKRAEPDLDLAGTEERLDAWWNEQL | 0.289
4 | HMAAEFERKNGIVYFFHSSEKPHLNYPHVHARYGEDTISISLRDFTVIGSFSSKKKQKEAVEYVKNK | -0.352
5 | HMAAEPDQQLIKPASDPVLRTMKIEELMKMSEQVKIQMSKAAKNFDYLEAARLRDEHFALENLIKLRS | 0.156
6 | HMAAGELSGEALIALIERHPMALSALATTFGHSESDLRAFVEPLARQGRLRLFESQGTLFVGGIG | 0.00392
7 | HMAAHHIILEEREQLSVSGVEEVESFDENTIVMLTNRGTLIVRGEELHIEKLSLDGGDLRVEGSIDSLTYE | -1.09
8 | HMAAHWANFLEALRAGRARRVLVARGVEGWLLKELERLGAPYTLVPRIELDTLLRTTHHQGIAAEVE | -0.748
9 | HMAAPELLTVRERQVAALISDGLSNQQIAHRLHLEVTTVKAHIGSIFNRLDMNNRVQIAIWAHDRQLVFS | 0.0815
10 | HMAAQDIILKRNAEQIEAIVKEITDTDVKYRKFTNTEGVTYSIRRSEVFSITYENGTMDLFA | 0.206
11 | HMAAQDLIVKTDASQVEARVLEISPDAVRYKRFSNPDGPTYVLPVAEIRYIRYANGEVEYYA | -0.207
12 | HMAAQLAHVPAVTGRPLAEAQRILADNRLNAQVTQQPVAEPKLDGVVIAQKITEGTRTMRGATVPLIVGKY | 0.148
13 | HMAASGTVNSGGDPLRVRADPNTSSQILTKLSDGTQVEVLEQAENGWYKIAHEGISGFVSGEYLVVH | -0.356
14 | HMAAVAPPVLERIASDLATRFAGTLSPETVDRYVRESYHLLAERAGITRYLPSLTARFAGDRLDA | -0.208
15 | HMAAVEDLPVKSVNGKKYHYYTVQPKESLYSLSHKLGISRQEIIKYNPGVEDGLKAYEDLLFPYTPK | -0.419
16 | HMAAVSTDEEFAALGIPAEWIPVLKSNGFQTVESLKKVAPGALFNQLGGLRKKNKLEIAMPSLDQVKAWLA | -0.278
17 | HMADDFISTLFSEGIIIDTEVKQFAERQGSPLQFVRHIASNLPEPRDIITMGEVRSVMREGA | -1.04
18 | HMADEEEIMVPQVVGKTYDEAKSELENAGFKVEKNEKTSDKASGTVISQSINGGAKKGTSVTLTVSKGN | 0.132
19 | HMADFYEVLGVERNASSDQIKRAYRKLARELHPDVNLDPVAQNRFKEVTEAYEVLSDPNKRSNFDRG | -0.0615
20 | HMADGEWAEMQRQLTAAGLLVVGRAAQERIQRLSDISPLIEAAQRSNVVMLSERTVDEVLTLVPT | -0.468
21 | HMADGTSIYAEREVLYVTSPTANTAKVYNVSGALVRTMTLSAGQTVRTALPAGFYVVALGNGNTHKVIV | 0.0275
22 | HMADKSLLELPGLDGDKVSALVTAGVRNVNDLADLATDELVEKTGFDEKTAADLIIAARAVVY | -0.283
23 | HMADLNQTDIDSITKSVGGVEQYKSLMDWAGKTLSQDAIDSFDDLVNTGNKGSIQLAVNGLVAQYQNDN | 0.121
24 | HMADMKIHLRPYAHDTNRWHVDIRLMHPTAATEIRKRLVAPAGLSEAQARAWGERQVPTILGKALGVI | -0.042
25 | HMADNILPAQTDAIKALATENGFSNESLEKYLIENYGTTIYGLSRNQGIQIINLFQSENPPKP | -0.207
26 | HMADQIIEGILGKEGGYVNNPNDKGGPTRWGITQTTARAYGYSGDMKALPRDTAKAIYLSQYWT | -0.218
27 | HMADTPQAYIRQMVQEAGADGIMLSTITDRLRARFKDFKVRDLGYAQMRQYMASTGTYDLEKSGRNFRVHL | 0.181
28 | HMADTSLDHLGVLVRHASDVDAWAEFFENRGVTLASQPRTHRDGARSFYVDDPDGNRVQVIYHPPI | -0.81

Row | Sequence | soluble fraction (log2)
29 | HMADWTETELAALRRAYASGTTRVSYDGKSVDYGSAEDLLSRIRTLQGAASDVAADAVAAVDA | -0.153
30 | HMADYSMDDNAWNAKKADIDEWFEANPDFSANKAITDGLFSIGDSQVEMRKRYWASIAGVFAGLPNSPIG | -1.78
31 | HMAEANTEADFVAIGVRAELLPILQKLGVHTIEQLKGIKATKLFNDIPGMRKKLKLDAVQNPTLQEIEGWL | -0.393
32 | HMAEAPGSVELLAERLRPWWEIHGGEWGSKTKALRFLFGDQAPVAGSYWRALEAAIAQIESTT | -0.108
33 | HMAEKNALWEEDAVYAADSSALARDGYDAIVRTDKGGKKGYLVVGTGGRERFMPLQTLVMLGYLKK | -0.0478
34 | HMAEKRTAIITTARADIRQKPEATAPLAFEAVKDVVLELTDKPADGWVRVKHRDGSTGYIRINQI | -0.132
35 | HMAELAKAKLDAAVQVALLKAGALDTDYLAYKLQGMDGVALDDKGSLTGWDTTLETLKSQYPTQFA | -0.388
36 | HMAEPTLNERLREALSDPAKLKIAKAIKAKYPIITARDIDTFLNMHEKDIENGADPMDEFEEFFHANY | -0.132
37 | HMAEPYDEDKVMEHLYIKGKDVVIAHLKHLKEHNEHVWLKKGVEWMQKNQDRLGFDMMEVIYVVHNH | -1.18
38 | HMAEQEELDAIRPDLDGQEIMDILGIKPGREVGAARNFLLELRLDEGPLGYDEAVSRLLTWWAERT | -1.2
39 | HMAETLLWADAAQEGLNRIVAAQPILVRISAAKRLRDASEQAAKAAGVSTVEIGHVQHASESLQFGDA | -0.0823
40 | HMAETLRLVGATNLNTLARARHPDDLAARNEFRRAIAQANPALFAGKSKVGSVSLPAGTVLALPPEV | ≥ 0.43
41 | HMAEVDDESIKLYDGGYQSNTTKSRLNALLSEFGYDTEHVFQKQFEWFISIFDLTEKAMRTVPFSNGMRL | -0.257
42 | HMAEVGDFTLAELIKVLFNEAGVLKAPVELRNDNTGGLQYRVGAYTDSETGWETIASIADLKGA | -1.74
43 | HMAEWLLVQLTNGNWFYGEVIEKTDATIVLNTDILGKVSIQKLDIRRSISGPLTAAKRQEIEDSERAKD | -0.341
44 | HMAFDDAHYKDMITSYLKKFKKGNRSEIENLIIPKLSEVLVEKQKKDKVKNLLQALRKDNQIRLKGKYWYL | 0.196
45 | HMAFIEADIGKRIKSLRNKKRITLESLAAETGFTKGYLSKVETSEKAPPVSTLGSIARALGVSISTLLGE | 0.144
46 | HMAFKDDDVQKAYDRYMDRYGELSVLYSDNGLKVDDDLFYKNNIPPNGKFTKEFFDELYELVNMEFINNY | -0.538
47 | HMAFRLPNGYGTIRRLTGNRRKPYVALVNPTQVFDDEKGTSHYKYDLLGTFAEKIDAYNAVMQYHKSPGGL | -0.223
48 | HMAGAPANLAARLREQILQGAYHDGQRLPAERHLAAEHGVSRGTVREALRLLEQGALLTRKRGSGSYVTYP | 0.006
49 | HMAGDVVVEVVGKVRDPQVVTLPKGSRVQDALEAAGGVKPGVNTTDQNLARLLVDGEQIRIGLSS | 0.0302
50 | HMAGFGDSLEKMSDAVEALKLLMSTEDARNDQNIQKIARELKDVFNKYRTHLRKSYPDQYDRIKSTL | -0.62
51 | HMAGGNHPTRLELLDSAAHIAERDGTSALTVDAITKSAGHAKGTFYIHFDDRADLLVEMHRR | -0.323
52 | HMAGIPIHMSQLKQIILLLSQGYPIKGIARETGVSRNTIKGYLQTLTSQDLNVTDALKLENIQLEYLLRSP | -0.239
53 | HMAGLYSLLLVELPMERLPEDLPAIKAAWLKTGDTEAFKVALQAMSSRGWTIAVPGKHRDTQMTQL | -0.235
54 | HMAGPVLTPEEAEVLRILADHGEMTVDNISAEGKMSAAVVLRGLGVLSAYGLVAPGGPGRWRSE | 0.00808
55 | HMAGTDLSERESEIAMLLLKGYPYKLIASRLYISESTVKSHVQNIYGKLGIHSRTELIEQFSAS | -0.966
